Measured values as given in patent publication US20220213176A1 (SHANGHAITECH UNIVERSITY, published 2022).

Target: SARS-CoV-2 spike receptor binding domain, wild-type (S-RBD) (SARS-CoV-2, UniProt P0DTC2 319-541)
Assay: BLI (Octet RED96), biotin S-RBD on SA sensor, 1:1 fit

B1: S-E6 trimer (T4F) (other)
heavy: QVTLRESGPGLVKPSETLSLTCAVSGGSLSSVNYYWSWIRQHPGKGLEWIGYIYYSGSTNYNPSLKSRVTMSLDTSKNQFSLKLSSVTAADTAVYYCATPGAIMGALHIWGQGTLVTVSSASTKGPSVFPLAPSSKSTSGGTAALGCLVKDYFPEPVTVSWNSGALTSGVHTFPAVLQSSGLYSLSSVVTVPSSSLGTQTYICNVNHKPSNTKVDKKVEPPKSGGGGSGGGGSGGGGSPGSGYIPEAPRDGQAYVRKDGEWVLLSTFLGHHHHHH
light: QAVLTQPSSASSTPGQRVIISCSGSSSNIGSNTVSWYQQVPGAAPKLLIYFDYRRPSGVPDRFSGTRSGTSASLGISGLQSEDEADYYCAAWDDSLSAWVFGRGTKLTVLGGLGGLVDYKGQPKAAPSVTLFPPSSEELQANKATLVCLISDFYPGAVTVAWKADSSPVKAGVETTTPSKQSNNKYAASSYLSLTPEQWKSHRSYSCQVTHEGSTVEKTVAPTECS
notes: also called trimer S-E6; trimeric S-E6
Q: Which Kd does the source give for B1 here?
A: 0.0101 nM
